Data: IntAct's records for PubMed 19893486

B1: CD44 antigen (Mus musculus), P15379 (parent)
chain: MDKFWWHTAWGLCLLQLSLAHQQIDLNVTCRYAGVFHVEKNGRYSISRTEAADLCQAFNSTLPTMDQMKLALSKGFETCRYGFIEGNVVIPRIHPNAICAANHTGVYILVTSNTSHYDTYCFNASAPPEEDCTSVTDLPNSFDGPVTITIVNRDGTRYSKKGEYRTHQEDIDASNIIDDDVSSGSTIEKSTPEGYILHTYLPTEQPTGDQDDSFFIRSTLATIASTVHSKSHAAAQKQNNWIWSWFGNSQSTTQTQEPTTSATTALMTTPETPPKRQEAQNWFSWLFQPSESKSHLHTTTKMPGTESNTNPTGWEPNEENEDETDTYPSFSGSGIDDDEDFISSTIATTPRVSARTEDNQDWTQWKPNHSNPEVLLQTTTRMADIDRISTSAHGENWTPEPQPPFNNHEYQDEEETPHATSTTPNSTAEAAATQQETWFQNGWQGKNPPTPSEDSHVTEGTTASAHNNHPSQRITTQSQEDVSWTDFFDPISHPMGQGHQTESKDTDSSHSTTLQPTAAPNTHLVEDLNRTGPLSVTTPQSHSQNFSTLHGEPEEDENYPTTSILPSSTKSSAKDARRGGSLPTDTTTSVEGYTFQYPDTMENGTLFPVTPAKTEVFGETEVTLATDSNVNVDGSLPGDRDSSKDSRGSSRTVTHGSELAGHSSANQDSGVTTTSGPMRRPQIPEWLIILASLLALALILAVCIAVNSRRRCGQKKKLVINGGNGTVEDRKPSELNGEASKSQEMVHLVNKEPSETPDQCMTADETRNLQSVDMKIGV
B2: Rho guanine nucleotide exchange factor TIAM2 (Mus musculus), Q6ZPF3 (parent)
chain: MGNSESQYTFQGSKNHSNTVTGAKQKPCSLKIRSVHAKDEKSLHGWTHGSSGAGYKSRSLARSCLSHFKNHQPYATRLSGPTCKVSKGTTYSKHRANTPGNDFQGNSGAFLPENGFHYVDRESEESHITSNGHLLTCYGRKESLASTPPGEDHRSPRVLIKTLGKLDGCLRVEFHNGGNPHKGTSEDPSGPVRLLRYSPTLASETCPVRETRRHSAAGSPSSQRPSPTDSRLRSSKGSSLSSESSWYDSPWGNAGEVSEVEGSFLAPSTPDPSLPSSFPPSDTKKPFNQSSSLSSLRELYKDPNLGCRSPSGTCLSSNEYISSQVSLNNRVSFASDMDVPSRVDHRDPLHYSSFTLPCRKSKALTEDAAKKDTLKARMRRFSDWTGSLSRKKRKLQEPRSMEGSEYFDSHSDGLNAEGQVPAQTSSLLWSGGSAQTLPHRSESTHAISVDPLRQNIYENFMRELEMSRSNTEHVETSTETMESSSESVSSLEQLDLLFEKEQGVVRKAGWLFFKPLVTLQKERKLELVARRKWKQYWVTLKGCTLLFYETYGKNSTEQNSAPRCALFAEDSIVQSVPEHPKKEHVFCLSNSCGDVYLFQATSQTDLENWVTAIHSACASLFAKKHGKEDTVRLLKSQTRSLLQKIDMDSKMKKMAELQLSVVSDPKNRKAIENQIRQWEQNLEKFHMDLFRMRCYLASLQGGELPNPKSLLAATSRPSKLALGRLGVLSVSSFHALVCSRDDSTLRKRTLSLTQRGKSKKGIFSSLKGLDTLARKGREKRASITQMFDSSHSHGFLGTQLPQKSTNSNKAHDLHLYGSAVDSALRDSMWEVQTYVHFQDNEGVTVTIKPEHRVEDVLALVCKMRQLEPTHYGLQLRKVVDKSVEWCVPALYEYMQEQVYDEIEVFPLSVYDVQLTKTGDMTDFGFAVTVQVDEHQHLNRIFISDVLPDSLAYGGGLRKGNEITSLNGEPVSDLDIQQMEALFSEKSVGLTLVARPVTTRRTLCASWSDSDLFSRDQKSLPPSPNQSQLLEEFLDNFRKTATSDFSNVPEITTGLKRSQTEGTLDQVPHREKMEQTFLSADQIAELCRDLNNTHTNSMEAPTESHDPPPRPLARHLSDADRLRKVIQELVDTEKSYVKDLSCLFELYLEPLQNETFLTQDEMESLFGSLPEMLEFQKVFLETLEDAISASSDFSVLETPSQFRKLLFSLGGSFLYYADHFKLYSGFCANHIKVQRVLERAKTDKAFKAFLDARNPTKQHSSTLESYLIKPVQRVLKYPLLLKELVSLTDHESEEHYHLTEALKAMEKVASHINEMQKIYEDYGMVFDQLVAEQSGTEKEVTELSMGELLMHSTVSWLNPFLSLGKARKDIELTVFVFKRAVILVYKENCKLKKKLPSNSRPAHNSADLDPFKFRWLIPISALQVRLGNTAGTENNSTWELIHTKSEIEGRPETIFQLCCSDSENKTSIVKVIRSILRENFRRHIKCELPLEKTCKDRLVPLKNRVPVSAKLASSRSLKGLRTSSSSEWPSEPSKGNSLDSDECSLSSGTQSSGCPVAESRRDSKSTELEKDAQEGLAEFPDGLIKESDILSDEDEDFHHPLKQGSPTKDIEIQFQRLKISEESDVHPVGQQPLTESGEQPKLVRGHFCPIKRKANSTKRGRGTLLKAQTRHQSLDSHPETASIDLNLVLEREFSVQSLTSVVNEEGFYETQSHGKS
partner: B1 chain
B3: Rho guanine nucleotide exchange factor TIAM2 (Mus musculus), Q6ZPF3 (parent)
chain: B2 chain
B4: Rho guanine nucleotide exchange factor TIAM1 (Mus musculus), Q60610 (parent)
chain: MGNAESQNVDHEFYGEKHASLGRKHTSRSLRLSHKTRRTRHASSGKAIHRNSEVSTRSSSTPSIPQSLAENGLEPFSQEGALDDFGDPIWVDRVDMGLRPVSYTDSSVTPSVDGSIVLTAASVQSMPDSEESRLYGDDATYLAEGGRRQCPYTSNGPTFMETASFKKKRSKSADIWREDSLEFSLSDLSQEHLTSNEEILGSAEEKDCEEARGMETEASPRQLSTCQRANSLGDLYAQKNSGVKANGGPRNRFSSYCRNLVSDIPDLAKHKMPPAAAEETPPYSNYNTLPCRKSHCLSEGATNPQISLSKSMQGRRAKTTQDVNTGEGSEFADSGIEGATTDTDLLSRRSNATNSSYSPPTGRAFVGSDSGSSSTGDRARQGVYENFRRELEMSTTNSESLEEAGSAHSDEQSSGTLSSPGQSDILLTAAQGTVRKAGALAVKNFLVHKKNKKVESATRRKWKHYWVSLKGCTLFFYETDGRSGIDHNSVPKHAVWVENSIVQAVPEHPKKDFVFCLSNSLGDAFLFQTTSQTELENWITAIHSACAAAVARHHHKEDTLRLLKSEIKKLEQKIDMDEKMKKMGEMQLSSVTDSKKKKTILDQIFVWEQNLEQFQMDLFRFRCYLASLQGGELPNPKRLLAFASRPTKVAMGRLGIFSVSSFHALVAARTGEIGVRRRTQAMSRSASKRRSRFSSLWGLDTTSKKKQGRPTINQVFGEGTDAVKRSLEGIFDDTVPDGKREKEVVLPSVHQHNPDCDIWVHEYFTPSWFCLPNNQPALTVVRPGDTARDTLELICKTHQLDHSAHYLRLKFLMENRVQFYIPQPEEDIYELLYKEIEICPKVTQNIHIEKSDAAADNYGFLLSSVDEDGIRRLYVNSVKETGLASKKGLKAGDEILEINNRAAGTLNSSMLKDFLSQPSLGLLVRTYPEPEGGVELLENPPHRVDGPVDLGESPLAFLTSNPGHSLSSEQGSSAETAPEEGEGPDLESSDETDHSSKSTEQVAAFCRSLHEMSPSDSSPSPQDATSPQLATTRQLSDADKLRKVICELLETERTYVKDLNCLMERYLKPLQKETFLTQDELDVLFGNLTEMVEFQVEFLKTLEDGVRLVPDLEKLEKVDQFKKVLFSLGGSFLYYADRFKLYSAFCASHTKVPKVLVKAKTDTAFKAFLDAQNPRQQHSSTLESYLIKPIQRVLKYPLLLRELFALTDAESEEHYHLDVAIKTMNKVASHINEMQKIHEEFGAVFDQLIAEQTGEKKEVADLSMGDLLLHTSVIWLNPPASLGKWKKEPELAAFVFKTAVVLVYKDGSKQKKKLVGSHRLSIYEEWDPFRFRHMIPTEALQVRALPSADAEANAVCEIVHVKSESEGRPERVFHLCCSSPESRKDFLKSVHSILRDKHRRQLLKTESLPSAQQYVPFGGKRLCALKGARPAMSRAVSAPSKSLGRRRRRLARNRFTIDSDAISASSPEKEPQQPAGGGDTDRWVEEQFDLAQYEEQDDIKETDILSDDDEFCESLKGASVDRDLQEQLQAASISQRARGRRTLDSHASRMTQLKKQAALSGINGGLESASEEVIWVRREDFAPSRKLNTEI

Variants of: B1
Settings: with tiam1_mouse Tiam1, Q60610

effect of a mutation on the interaction | Variant
disrupting interaction | C760S

Variants of: B1
Settings: with tiam1_mouse Tiam1, Q60610
Remark: another data set of the same source

effect of a mutation on the interaction | Variant
decreasing interaction | S754A

Variants of: B1
Settings: with tiam1_mouse Tiam1, Q60610
Remark: another data set of the same source

effect of a mutation on the interaction | Variant
decreasing interaction | P753A

Variants of: B1
Settings: with tiam1_mouse Tiam1, Q60610
Remark: another data set of the same source

effect of a mutation on the interaction | Variant
disrupting interaction | E755K

Variants of: B1
Settings: with tiam1_mouse Tiam1, Q60610
Remark: another data set of the same source

effect of a mutation on the interaction | Variant
disrupting interaction | E752K

Variants of: B1
Settings: with tiam1_mouse Tiam1, Q60610
Remark: another data set of the same source

effect of a mutation on the interaction | Variant
decreasing interaction | T762A

Variants of: B2
Settings: with cd44_mouse Cd44, P15379

effect of a mutation on the interaction | Variant
decreasing interaction | K624A

Variants of: B2
Settings: with cd44_mouse Cd44, P15379
Remark: another data set of the same source

effect of a mutation on the interaction | Variant
decreasing interaction | R716A

Variants of: B2
Settings: with cd44_mouse Cd44, P15379
Remark: another data set of the same source

effect of a mutation on the interaction | Variant
decreasing interaction | R693A

Variants of: B2
Settings: with cd44_mouse Cd44, P15379
Remark: another data set of the same source

effect of a mutation on the interaction | Variant
decreasing interaction | R632A

Variants of: B2
Settings: with cd44_mouse Cd44, P15379
Remark: another data set of the same source

effect of a mutation on the interaction | Variant
decreasing interaction | K627A

Variants of: B3
Settings: with PARD3, Q8TEW0-2
Sequence of PARD3, Q8TEW0-2 (Q8TEW0 other isoform, or with tags, fused parts or gaps): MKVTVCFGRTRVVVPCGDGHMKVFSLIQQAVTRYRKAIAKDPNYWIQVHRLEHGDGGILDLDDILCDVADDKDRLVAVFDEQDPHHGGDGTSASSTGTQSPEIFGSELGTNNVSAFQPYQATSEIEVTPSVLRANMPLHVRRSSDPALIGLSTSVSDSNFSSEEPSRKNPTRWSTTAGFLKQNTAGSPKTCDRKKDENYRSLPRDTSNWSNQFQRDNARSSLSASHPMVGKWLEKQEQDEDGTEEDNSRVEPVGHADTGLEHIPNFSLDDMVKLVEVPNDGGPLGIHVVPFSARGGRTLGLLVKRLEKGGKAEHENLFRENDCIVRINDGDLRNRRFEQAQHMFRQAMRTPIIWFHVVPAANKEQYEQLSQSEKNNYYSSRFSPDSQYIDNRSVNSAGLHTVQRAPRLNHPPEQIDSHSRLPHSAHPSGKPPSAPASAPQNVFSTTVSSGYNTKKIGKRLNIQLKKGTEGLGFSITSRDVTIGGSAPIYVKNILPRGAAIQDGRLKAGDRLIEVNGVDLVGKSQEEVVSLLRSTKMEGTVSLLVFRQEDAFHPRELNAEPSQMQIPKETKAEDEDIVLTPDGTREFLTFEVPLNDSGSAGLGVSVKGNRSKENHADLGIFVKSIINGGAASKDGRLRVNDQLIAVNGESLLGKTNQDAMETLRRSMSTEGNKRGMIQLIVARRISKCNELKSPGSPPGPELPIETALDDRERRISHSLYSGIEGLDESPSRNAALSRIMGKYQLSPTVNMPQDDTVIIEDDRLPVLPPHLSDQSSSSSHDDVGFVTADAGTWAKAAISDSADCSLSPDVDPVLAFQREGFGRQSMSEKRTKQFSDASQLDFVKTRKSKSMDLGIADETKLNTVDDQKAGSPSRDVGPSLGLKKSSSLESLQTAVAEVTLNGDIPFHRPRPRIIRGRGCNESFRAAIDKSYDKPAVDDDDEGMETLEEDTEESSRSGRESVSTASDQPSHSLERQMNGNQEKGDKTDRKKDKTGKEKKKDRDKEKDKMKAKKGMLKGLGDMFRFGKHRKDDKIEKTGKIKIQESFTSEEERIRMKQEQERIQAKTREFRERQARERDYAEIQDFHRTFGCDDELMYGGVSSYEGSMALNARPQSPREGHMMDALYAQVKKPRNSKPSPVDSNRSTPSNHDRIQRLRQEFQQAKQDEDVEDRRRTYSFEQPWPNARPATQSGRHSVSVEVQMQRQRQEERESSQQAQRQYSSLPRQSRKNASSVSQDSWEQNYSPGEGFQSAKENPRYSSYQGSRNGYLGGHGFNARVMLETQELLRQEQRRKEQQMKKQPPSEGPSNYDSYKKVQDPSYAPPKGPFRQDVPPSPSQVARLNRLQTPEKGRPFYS

effect of a mutation on the interaction | Variant
decreasing interaction | R632A

Variants of: B3
Settings: with pard3_human PARD3, Q8TEW0
Target sequence in this assay (Q8TEW0 whole entry): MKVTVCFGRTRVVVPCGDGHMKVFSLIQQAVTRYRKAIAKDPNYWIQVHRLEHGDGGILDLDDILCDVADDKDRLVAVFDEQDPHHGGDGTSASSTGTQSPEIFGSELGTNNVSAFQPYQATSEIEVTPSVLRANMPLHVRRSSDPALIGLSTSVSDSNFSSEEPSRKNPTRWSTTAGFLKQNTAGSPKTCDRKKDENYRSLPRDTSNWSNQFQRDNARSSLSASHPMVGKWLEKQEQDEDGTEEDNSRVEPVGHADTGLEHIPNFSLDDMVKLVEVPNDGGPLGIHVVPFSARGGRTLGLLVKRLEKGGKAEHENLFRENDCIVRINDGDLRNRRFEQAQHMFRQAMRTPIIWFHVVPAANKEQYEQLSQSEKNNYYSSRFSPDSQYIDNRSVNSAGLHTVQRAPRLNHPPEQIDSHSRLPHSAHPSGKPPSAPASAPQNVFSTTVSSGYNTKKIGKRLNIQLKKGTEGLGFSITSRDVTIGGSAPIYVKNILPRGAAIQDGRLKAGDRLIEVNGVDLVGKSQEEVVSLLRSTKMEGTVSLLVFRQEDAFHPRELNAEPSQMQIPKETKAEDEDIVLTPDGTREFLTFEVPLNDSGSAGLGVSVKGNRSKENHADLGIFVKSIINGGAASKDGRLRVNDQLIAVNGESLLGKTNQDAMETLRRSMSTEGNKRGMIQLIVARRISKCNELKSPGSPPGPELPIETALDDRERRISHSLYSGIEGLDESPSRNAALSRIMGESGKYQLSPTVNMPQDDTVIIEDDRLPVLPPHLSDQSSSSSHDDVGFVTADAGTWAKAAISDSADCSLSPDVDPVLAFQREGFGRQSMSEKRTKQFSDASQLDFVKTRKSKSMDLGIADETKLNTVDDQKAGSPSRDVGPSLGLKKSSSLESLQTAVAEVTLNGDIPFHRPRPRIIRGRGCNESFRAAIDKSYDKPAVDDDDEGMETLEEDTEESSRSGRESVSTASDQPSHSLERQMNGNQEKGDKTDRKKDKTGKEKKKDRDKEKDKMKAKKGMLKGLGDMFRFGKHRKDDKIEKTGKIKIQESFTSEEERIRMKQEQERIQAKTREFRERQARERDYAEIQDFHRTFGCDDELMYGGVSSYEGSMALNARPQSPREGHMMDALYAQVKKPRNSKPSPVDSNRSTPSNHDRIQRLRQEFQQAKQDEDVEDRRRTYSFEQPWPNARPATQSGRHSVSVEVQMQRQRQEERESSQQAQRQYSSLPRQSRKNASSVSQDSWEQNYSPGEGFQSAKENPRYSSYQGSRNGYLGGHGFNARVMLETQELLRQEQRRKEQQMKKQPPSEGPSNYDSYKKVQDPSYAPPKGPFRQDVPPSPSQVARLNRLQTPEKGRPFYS

effect of a mutation on the interaction | Variant
decreasing interaction | R693A
decreasing interaction | R716A

Variants of: B3
Settings: with PARD3, Q8TEW0-2
Remark: another data set of the same source

effect of a mutation on the interaction | Variant
decreasing interaction | R693A

Variants of: B3
Settings: with PARD3, Q8TEW0-2
Remark: another data set of the same source

effect of a mutation on the interaction | Variant
decreasing interaction | K627A

Variants of: B3
Settings: with PARD3, Q8TEW0-2
Remark: another data set of the same source

effect of a mutation on the interaction | Variant
decreasing interaction | K624A

Variants of: B3
Settings: with PARD3, Q8TEW0-2
Remark: another data set of the same source

effect of a mutation on the interaction | Variant
decreasing interaction | R716A

Variants of: B4
Settings: with pard3_human PARD3, Q8TEW0
Target sequence in this assay (Q8TEW0 whole entry): as above

effect of a mutation on the interaction | Variant
decreasing interaction | R645A
decreasing interaction | R622A
